B1: ScACS-8: Schizochytrium acyl-CoA synthetase, SEQ ID NO:96/97 (protein, listed as Schizochytrium sp.)
chain: MDAEKVIKAGAAAGAAYLGWKYLDEKHGISHDLELARRLLKLKKEINERNTKRVFNVTNMWYEAYAKNPKKPALLYLDEVVTYQDMEDRSNQVANWLLSKGLKRGDTVALLMENRPEFVISWLGMTKIGVKVALINTSIKQKPLLHCLKISGCKIVLFGSELAEPILDIKDELADLGIELAAEGAREASPDWIEVVNPEIEASPKTATSPKLREGIGMQDVFGFIYTSGTTGLPKAAVILHQKMFSFGALMTNAFQCTQDDIVYTCLPLFHSAGGGLGIGIMLYTGATVVIKRKFSVTDFWSDCVKYKCTVVQYIGELCRYLVMAESRPEETQHKVRLAIGNGLRPEIWAEFQERFQIPQIGEFYGATEGNGALVQHCTKPEDRGAVGRMGSLLMRVTGVKFARFDVLEEAPVRGADGFCIECDVDEPGELLFPIRDNDPSSAFAGYNDPKATAKKIITDAFTKGDKYFRTGDLLSRDARGRIYFRDRIGDTFRCKGENVSTSEVAEVLSTYPGIEELNIYGVQIPNNEDGRFPCAALTPKDSDLSNVDLKGFYEHAKKNLPSYSIPMFIRVQPVMPVTATMKHQKVQLRKEGMDIHVIKDPMYWLHDVKKEYDPLTEEDYARIIGQRARL
B2: ScACS-5: Schizochytrium acyl-CoA synthetase, SEQ ID NO:90/91 (protein, listed as Schizochytrium sp.)
chain: MLEMREEVVKHEGEAAHFKGVKMKVFPNGFQTMVDIFKVPFEKQVMKNDLLVDETGRMTFQEVFDTAAALGDALVNEYGVEKGDRVVALSKNRNEYIVTMIAATSVGAIFAPLNSYWKTEQLSYGLDDSGAKVVVCDADRYVQLEPLLDGRASALERVLLLRGPGTEKFRPNAKTTAFDEVISKHAGARMPPFPCQKDDPAMIMYTSGTTGNPKGVVLTHRSIGEAMTGAVAAMTYEKTLAATRAGETLPEPEDPSLSAFLLAVPLFHVTGHHCVGLLSIISCRKIVLMSKWDPKLALELIESERITNFTGVPTMALDLMTHPDFKKRDTSTLKSLGGGGAAPPSTMVNDIDKNFKQASPLQAWGMTETNGIATLTEGDMYRRKPESCGKAIPNVEIAIWNARDEPVPAGAEGELVIRGSTCLKEYWNKPEATAKSITAEGWFRTGDIGVIDEEGFLQLKGRSKEIIIRGGENISCVVVENAVYNHDDINEVAAIPVPHPTLGEEVGIAVFSQSGARPSLQSIRDVCGNLARYEMPTHIYYWPEQLPRGDTGKIHKRTILADIKAGKVKDEAVPASKL
B3: DAGAT: Schizochytrium diacylglycerol acyltransferase, SEQ ID NO:100/101; gene knocked out in strain B73-8 (protein, listed as Schizochytrium sp.)
chain: MERPQAQASPARSEARRRRGDRSKGFADEDGETSVNTPNGMQTPYSTSMGSVSSYSSSGDYAMSEAEGSEVDPADDRMGDSIGSKPSSSSVTGRRRLTQEERDYFLRLEKEWREEDAWADQPGSWYSMLAWMPVLIGLRVFNVLLSIAFWPVSFVARVFFGKKIHTVSFWDVPLSRRKQTAVVLLFVMLLPMVVVVYSWTLVLLLFPLTTFPTLCYMVWIIYVDKSPETGSRRPFLRYWKMWRHFANYFPLRLIRTTPLDSRRKYVFCYHPHGIISLGAFGNFATDSTGFSRKFPGIDLRVLTLALNFYCPLLREFLLYLGLCSAAKKSCNQILQRGPGSAIMLVVGGAAESLDSQPGTYRLTLGRKGFVRVALDNGADLVPVLAFGENDVFDTVYLPPNSWARNVQEFVRKKLGFATPIFSGRGIFQYNMGLMPHRRPIIVVVGKPIKMPKIPDELKGRALSTTAEGVALVDKYHEKYVKALRELWNLYKERWAVHRQGSLLIQK
B4: ScACS-3: Schizochytrium acyl-CoA synthetase, SEQ ID NO:86/87 (protein, listed as Schizochytrium sp.)
chain: MGCSGSKPAAPGEVPAVQGYEVTEEVAPGPYDPEKGPYYVSNKAERREIIFAAKGVASEATTPAMTLSKMFRKAAEASKDEVALAVEWPVPEIGADGKIPDSLPLDKWRTWTFGQYYADSHAMARAIVALGAERFDGVTIFGFNSPFWLMAQMAATLSTTLPAGIYPTDTAEQVRYKLRYTDTAVAFCGVEKEFTMLRAAVEDAPDLKAIVCWAHLPMVKTITREDGSKVKVMSWQEALALGEITPPAEVDARIEAQNPGDCAELVFTSGTTGLPKAVMLSHDNLCFAITSIVSTLEDFGRSGPESHLSYLPLSHIAGQEMDVLLPLVVTAFRESHHAVYFVRPYDLKTGTLIDRVKTVQPTAFLGVPRVYEKIMAKMRAKGASVKGLKKKIVQYSKKKGLEYQRNLEVGGSGGKPSNYGFAEKKVLSKVKEALGFTRLKFAISGAAPMSREVQEYFAGIGIAILDVYGASESTGGVTGNSIKAHQFGTVGHTLPGMDVRVFQKAEGGDSSAETGLGELREPARAKDIFHPSEEEQGEVCFRGRSVMLGYMANPKLGEEHVAEVERKNASAIDRHGWYHSGDKGACSKKNMFVITGRYKEIIIGAGGENIAPLPMEDAVKSLAPGVANAIMIGDKRKFNIMLITLRAEGATGEFPGSDNLDPDVRSIGSDSTRTIQKAMADSKWIEHVRDAISKTNANGDACQSNAWKIGRFTILPYDISIVGGELTPTLKLKRNFVDEKYKAVIDHVYAHEGDSKDLTYVPCPIDRVPRKISGDESAAGAASPEANVAEPVTAESGSPSEVTTEAKPANETDDAESKDAAAPLAAKVDTTVPDVAQPQAAS

Experiments:
acyl-CoA synthetases = experiment: In vitro activity assay of Schizochytrium FAS-KO cell free homogenate with Triacsin C (HIP extraction, normal phase TLC, phosphorimage); assay type: biochemical; conditions: FAS-KO sample; Triacsin C 0, 25, 100 or 200 uM for 10 minutes, then ATP and Mg+2, additional 20 minutes; effect at higher concentrations
Method: An example of a protocol for in vitro activity assays of both FAS and PUFA synthase activities is as follows. In a final volume of 100 uL, mix the enzyme preparation and Buffer A (volume of these 2 components=90 uL) plus the following components added as a cocktail (in 10 uL) to yield the final concentrations indicated in parenthesis: malonyl-CoA (50 uM—a mixture of cold and malonyl-2-^14C-CoA such that the final concentration of radiolabel is 0.65 μCi/mL), NADH (1 mM), NADPH (1 mM) and acetyl-CoA (10 uM). These components and additional components can be adjusted depending on the requirements of the particular experiments. The assay reactions are carried out in glass tubes in a room temperature (˜21° C.) water bath. The time of incubation is dependant on the experimental requirements. The reactions are stopped by one of two methods depending on the work-up protocol. For conversion of fatty acids to fatty acid methyl-esters (FAMEs) using an acidic method, the reaction is stopped by adding the FAME reagent (see below). For extraction of lipids without derivatization, the reaction is stopped by addition of 125 uL of isopropanol:acetic acid (4:1 v/v) (see below). […]

yeast = experiment: FAME analysis of yeast expressing Schizochytrium PUFA synthase and Het I with co-expressed acyl-CoA synthetase; assay type: cell-based, Saccharomyces cerevisiae; conditions: data not shown
Source text: More specifically, the yeast expression system described in the Examples above was modified to accommodate introduction of the fifth ACoAS gene (i.e., the yeast also contained OrfsA, B and C of the Schizochytrium PUFA synthase system and a PPTase (Het I from Nostoc)) using 4 vectors. Yeast expression vectors in which two genes can be cloned (the pESC vectors) were obtained from Stratagene. These vectors are similar to and compatible with the pYES vectors described above. […] This provides confirmation that the accumulation of the products of the PUFA synthase in heterologous host can be increased by co-expression of enzymes that may be more efficient at utilization of those products.
In subsequent experiments, ScACS-3, ScACS-5, ScACS-6 and ScACS-8 were also tested in yeast that contained the genes encoding the Schizochytrium PUFA synthase system (e.g., sOrfA, sOrfB and nOrfC, and HetI), using similar methods as described above.

Schizochytrium = experiment: DAGAT gene knock out in Schizochytrium strain B73-8, lipid profile; assay type: cell-based; conditions: inactivation of the DAGAT gene in Schizochytrium B73-8
Source text: Using the knock out technology described above in Example 1 for FAS in Schizochytrium, the inventors similarly knocked out the DAGAT gene (comprising SEQ ID NO:100) in a Schizochytrium strain, denoted B73-8. […] Accordingly, the inventors concluded that this DAGAT is the primary enzyme responsible for TAG synthesis in Schizochytrium.

| Molecule | DHA production in yeast as compared to in the absence of the added acyl-CoA synthetase gene (yeast) | further results |
| --- | --- | --- |
| CCC/C=C/C/C=C/C=C/C=N/NN=O [Triacsin C] | – | radiolabel in the FFA band (loss after addition of ATP and Mg+2) (acyl-CoA synthetases): blocked the loss of radiolabel from the FFA band |
| B1 | increased DHA production | – |
| B2 | increased DHA production | – |
| B3 | – | reduction in TAG (Schizochytrium): ~90%; reduction in mg FAME/gm biomass (Schizochytrium): ~80% |
| B4 | increased DHA production | – |

— patent US8426686B2, “Polyunsaturated fatty acid production in heterologous organisms using PUFA polyketide synthase systems” (DSM IP Assets B.V., priority 2006, dated 2013)
